As a reminder, the EC50 is the concentration giving half of the maximal effect.

B7: PSMGFR minus 10 amino acids from the C-terminus (peptide)
peptide: GTINVHDVETQFNQYKTEAASRYNLTISDVSVSDV
notes: also called C-10; C-10 PSMGFR

Test [1] addresses T1, PSMGFR minus 10 amino acids from the N-terminus.
T1 construct: also called N-10; N-10 PSMGFR
T1 peptide: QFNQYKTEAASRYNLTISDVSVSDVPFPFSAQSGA
Description: competitive ELISA, peptide on plate (FIG. 3C). The procedure: FIGS. 3A-3C show results of competitive ELISA assays. The PSMGFR MUC1* peptide is immobilized on the plate and dimeric NM23-H1, aka NME1, is added either alone or after the MN-E6 antibody has been added (A). The same experiment was performed wherein NM23-H7, NME7-AB, is added alone or after MN-E6 has been added (B). […] In a similar experiment (C), PSMGFR or PSMGFR minus 10 amino acids from the N-terminus, aka N-10, is immobilized on the plate. Dimeric NM23-H1 is then added. Anti-MUC1* antibodies MN-E6, MN-C2, MN-C3 or MN-C8 are then tested for their ability to compete off the NM23-H1.
(In general: An ELISA detects its analyte on a solid surface through an enzyme-linked reagent.)

The target of test [2] is T2, PSMGFR peptide (Primary Sequence of the MUC1 Growth Factor Receptor).
T2 construct: Immobilised on ELISA plates or attached to 1 um or 4.5 um beads; also called MUC1* peptide; MUC1* PSMGFR peptide
T2 peptide: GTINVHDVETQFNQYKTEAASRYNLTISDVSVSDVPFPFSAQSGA
Description: ELISA, peptide immobilised on plate (FIG. 22A). The procedure:
(§1) FIGS. 22A-22C show graphs of ELISAs wherein the assay plate surface was immobilized with either PSMGFR peptide, PSMGFR minus 10 amino acids from the N-terminus or minus 10 amino acids from the C-terminus. The MN-C3 antibody variants were then assayed for binding to the various MUC1* peptides. A) Purified mouse monoclonal MN-C3 antibody; B) Impure humanized MN-C3 antibody; and C) the humanized MN-C3 scFv-Fc. ELISAs show binding to the PSMGFR peptide as well as to certain deletion peptides.

Test [3] concerns the target B7. The test is described as follows: ELISA, N-10 and C-10 peptides on plate (FIG. 2E). The procedure:
(§2) FIGS. 2A-2F show results of ELISA assays. MUC1* peptides PSMGFR, PSMGFR minus 10 amino acids from the N-terminus aka N-10, or PSMGFR minus 10 amino acids from the C-terminus, aka C-10 are immobilized on the plate and the following are assayed for binding: NME7-AB (A), MN-C2 monoclonal antibody (B), MN-E6 monoclonal antibody (C), or dimeric NME1 (D). […] MUC1* peptides PSMGFR minus 10 amino acids from the N-terminus aka N-10, or PSMGFR minus 10 amino acids from the C-terminus, aka C-10, are immobilized on the plate and the following are assayed for binding: MN-C3 (E) and MN-C8 (F).

Test [4] deals with T2, PSMGFR peptide (Primary Sequence of the …). Description: ELISA, surface coated with PSMGFR peptide. The procedure: Humanized MN-C2 scFv is then incubated with the surface, washed and detected according to standard methods.
Test [5] shares this target. Description: ELISA, PSMGFR on surface (FIG. 12).
Test [6] shares this target. Description: ELISA, peptide immobilised on plate (FIG. 22B). The procedure: as §1
Test [7] has the same target. The test is described as follows: ELISA, peptide on plate (FIG. 2B). The procedure:
as §2

Test [8] shares this target. The test is described as follows: ELISA, peptide on plate (FIG. 2C). The procedure:
as §2

Test [9] concerns the target T1, PSMGFR minus 10 amino acids from the …. The test is described as follows: selection screens.
The target in another test is T3, dimeric NME1 (human, UniProt P15531 1-152, limits assumed).
T3 construct: Used in dimer form; also called NM23-H1 dimers; dimeric NM23-H1
T3 sequence (P15531 whole entry): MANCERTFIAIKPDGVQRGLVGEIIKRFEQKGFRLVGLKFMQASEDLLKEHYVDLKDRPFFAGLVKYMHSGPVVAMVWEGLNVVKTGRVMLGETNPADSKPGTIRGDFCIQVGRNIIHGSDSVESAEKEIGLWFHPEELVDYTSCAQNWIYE
The test is described as follows: ELISA, peptide immobilised on plate (FIG. 2D). The protocol: as §2

In another test the target is T4, NME7-AB (human, UniProt Q9Y5B8 92-376).
T4 construct: also called NM23-H7
T4 sequence: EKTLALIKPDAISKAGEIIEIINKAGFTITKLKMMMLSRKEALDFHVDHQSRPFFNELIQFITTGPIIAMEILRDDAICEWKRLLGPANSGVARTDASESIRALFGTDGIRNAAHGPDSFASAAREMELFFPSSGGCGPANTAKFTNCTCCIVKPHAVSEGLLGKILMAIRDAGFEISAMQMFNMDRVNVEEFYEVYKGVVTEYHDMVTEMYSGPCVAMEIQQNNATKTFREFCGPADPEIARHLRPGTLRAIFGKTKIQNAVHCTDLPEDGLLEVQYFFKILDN
Description: ELISA, peptide immobilised on plate (FIG. 2A). The procedure: as §2

B1: mouse monoclonal antibody MN-C3 (antibody, V domains shown)
VH: QVQLQQSGPELVRPGVSVKISCKGSGYRFTDYAMNWVKQSHAKSLEWIGVISTFSGNTNFNQKFKGKATMTVDKSSSTAYMELARLTSEDSAMYYCARSDYYGPYFDYWGQGTTLTVSS
VL: DVLMTQTPLSLPVSLGDQASISCRSSQTIVHSNGNTYLEWYLQKPGQSPKLLIYKVSNRFSGVPDRFSGSGSGTDFTLKINRVEAEDLGVYYCFQGSHVPFTFGSGTKLEIK
notes: also called Min-C3
On to B1, for which the binding result in [1], in test [2] and in test [3] was “binds” in each case.

B2: humanized MN-C2 scFv (scFv, V domains shown, not shown: small tags and cut ends)
VH: EVQLVESGGGLVKPGGSLRLSCAASGFTFSGYAMSWVRQAPGKGLEWVSTISSGGTYIYYPDSVKGRFTISRDNAKNSLYLQMNSLRAEDTAVYYCARLGGDNYYEYFDVWGKGTTVTVSS
VL: DIVLTQSPASLAVSPGQRATITCRASKSVSTSGYSYMHWYQQKPGQPPKLLIYLASNLESGVPARFSGSGSGTDFTLTINPVEANDTANYYCQHSRELPFTFGGGTKVEIKR
notes: also called huMN-C2 scFv; hMN-C2 scFv
In [4], B2 displayed an EC50 of about 333 nM.

B3: humanized MN-E6 scFv (scFv, V domains shown, not shown: small tags and cut ends)
VH: EVQLVESGGGLVKPGGSLRLSCAASGFTFSRYGMSWVRQAPGKRLEWVSTISGGGTYIYYPDSVKGRFTISRDNAKNTLYLQMNSLRAEDTAVYYCTRDNYGRNYDYGMDYWGQGTLVTVSS
VL: EIVLTQSPATLSLSPGERATLTCSATSSVSYIHWYQQRPGQSPRLLIYSTSNLASGIPARFSGSGSGSDYTLTISSLEPEDFAVYYCQQRSSSPFTFGSGTKVEIK
notes: also called hu MN-E6 scFv
Take B3: in test [5], the binding result is given as “binds”.

B4: humanized MN-C3 antibody (impure preparation) (antibody, V domains shown)
VH: QVQLVQSGAEVKKPGASVKVSCKASGYTFTDYAMNWVRQAPGQGLEWMGVISTFSGNTNFNQKFKGRVTMTTDTSTSTAYMELRSLRSDDTAVYYCARSDYYGPYFDYWGQGTTLTVSS
VL: DIVMTQTPLSLSVTPGQPASISCRSSQTIVHSNGNTYLEWYLQKPGQSPQLLIYKVSNRFSGVPDRFSGSGSGTDFTLKISRVEAEDVGVYYCFQGSHVPFTFGGGTKVEIKR
notes: also called Impure humanized MN-C3 antibody
Regarding B4, the binding result in [6] is reported as “binds”.

B5: mouse monoclonal antibody MN-C2 (antibody, V domains shown)
VH: EVQLEESGGGLVKPGGSLKLSCAASGFTFSGYAMSWVRQTPEKRLEWVATISSGGTYIYYPDSVKGRFTISRDNAKNTLYLQMSSLRSEDTAMYYCARLGGDNYYEYFDVWGAGTTVTVSS
VL: DIVITQSTASLGVSLGQRATISCRASKSVSTSGYSYMHWYQQRPGQPPKLLIYLASNLESGVPARFSGSGSGTDFTLNIHPVEEEDAATYYCQHSRELPFTFGGGTKLEIKR
notes: also called Min-C2
As for B5, the binding result in test [1] and in test [7] was “binds” each time.

B6: mouse monoclonal antibody MN-E6 (antibody, V domains shown)
VH: EVKVVESGGDLVKPGGSLKLSCVVSGFTFSRYGMSWVRQTPGKRLEWVATISGGGTYIYYPDSVKGRFTISRDNAKNTLYLQMSSLKSEDTAMYHCTRDNYGRNYDYGMDYWGQGTSVTVSS
VL: QIVLTQSPAIMSASPGEEVTLTCSATSSVSYIHWFQQRPGTSPKLWIYSTSNLASGVPVRFSGSGYGTSYSLTISRMEAEDAATYYCQQRSSSPFTFGSGTKLEIK
notes: also called Min-E6; parent MN-E6 antibody
Turning to B6, the binding result in [8] and in test [9] was “binds” in each case.

Turning to B7, the binding result with dimeric NME1 and with NME7-AB was “no binding” throughout.

Source of the values: US20190290692A1 (MINERVA BIOTECHNOLOGIES, published 2019).
